From patent US20220396617A1 (BEIJING MABWORKS BIOTECH, published 2022)

T1: TIGIT (ECD)-hFc (human, UniProt Q495A1 22-141)
T1 construct: bought protein; also called recombinant human TIGIT (ECD)-hFc; Cat #: 10917-H02H, Sino Biological; not shown: human Fc (hFc) of the bought protein
T1 sequence: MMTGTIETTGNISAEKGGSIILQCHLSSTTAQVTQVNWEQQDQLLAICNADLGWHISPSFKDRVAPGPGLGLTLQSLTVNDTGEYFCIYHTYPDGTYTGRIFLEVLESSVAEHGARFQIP

T2: human TIGIT (ECD)-his (human, UniProt Q495A1 22-141)
T2 construct: bought protein; also called hTIGIT(ECD)-his; Cat #: 10917-H08H, Sino Biological; not shown: his tag of the bought protein
T2 sequence: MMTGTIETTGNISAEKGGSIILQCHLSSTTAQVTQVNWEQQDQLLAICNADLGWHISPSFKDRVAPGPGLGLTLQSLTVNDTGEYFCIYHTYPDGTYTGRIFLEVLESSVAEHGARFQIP

T3: human TIGIT expressed on HEK293A cells (human, UniProt Q495A1 22-244)
T3 sequence: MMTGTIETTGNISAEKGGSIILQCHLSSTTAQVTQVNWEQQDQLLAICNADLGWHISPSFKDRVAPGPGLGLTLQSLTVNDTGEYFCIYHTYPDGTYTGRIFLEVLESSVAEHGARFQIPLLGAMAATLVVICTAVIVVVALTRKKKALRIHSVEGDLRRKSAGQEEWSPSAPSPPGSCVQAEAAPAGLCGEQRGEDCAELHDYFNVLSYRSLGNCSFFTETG


Assays:
TIGIT (ECD)-hFc [1] = target: T1, TIGIT (ECD)-hFc; test: FACS blocking assay (protocol of Example 7): serially diluted antibody pre-incubated with TIGIT (ECD)-hFc, then binding of TIGIT (ECD)-hFc to A549/human PVR cells measured; blocked ligand: human PVR [A]
human TIGIT (ECD)-his = target: T2, human TIGIT (ECD)-his; test: SPR (BIAcore 8K), human TIGIT (ECD)-his on CM5 chip, antibody injected
Method: They were also tested in SPR assays for their binding affinities to human and monkey TIGITs using the BIAcore™ 8K instrument (GE Life Sciences, US). […] The binding affinities were calculated with the RUs of blank controls subtracted. The association rate (kₐ) and dissociation rate (kd) were calculated using the one-to-one Langmuir binding model (BIA Evaluation Software, GE Life Sciences, US). The equilibrium dissociation constant KD was calculated as the kd/kₐ ratio.

[2] = target: T3, human TIGIT expressed on HEK293A cells; test: cell-based or functional assay
TIGIT (ECD)-hFc [3] = target: T1, TIGIT (ECD)-hFc; test: FACS blocking assay (protocol of Example 7): serially diluted antibody pre-incubated with TIGIT (ECD)-hFc, then binding of TIGIT (ECD)-hFc to A549/human PVR cells measured; blocked ligand: human PVR [B]
[4] = target: T3, human TIGIT expressed on HEK293A cells; test: FACS, HEK293A/human TIGIT cells, serially diluted antibody (protocol of Example 5) [A]

Row | Binder | IC50 (read off the curve) (TIGIT (ECD)-hFc [1]) | Kd (human TIGIT (ECD)-his) | NK92-mediated ADCC against HEK293A/human TIGIT cells, EC50 [2] | IC50 (read off the curve) (TIGIT (ECD)-hFc [3]) | EC50 (read off the curve) [4]
1 | 70E11-VH3VL3 (antibody, human IgG1, kappa, V domains shown, humanized, human IgG1/kappa) VH: QVQLVQSGAEVKKPGASVKVSCKASGYTFTSYNVHWVRQAPGQGLEWIGTIYPGNLATSYNQKFKGRVTLTADKSTSTVYMELSSLRSEDTAVYYCARSGTMDYWGQGTTVTVSS VL: EIVLTQSPGTLSLSPGERATLSCRASSSISSTYLHWYQQKPGASPKLLIYNTQNLASGIPDRFSGSGSGTSYTLTISRLEPEDFAVYYCQQFGGYPLITFGAGTKLELKR | ~4000 ng/mL | 0.124 nM | 19.1 pM | – | –
2 | 70E11-VH4VL4 (antibody, human IgG1, kappa, V domains shown, humanized, human IgG1/kappa) VH: QVQLVQSGAEVKKPGASVKVSCKASGYTFTSYNVHWVKQTPGQGLEWIGTIYPGNLATSYNQKFKGRVTLTADKSTSTVYMELSSLRSEDTAVYYCARSGTMDYWGQGTTVTVSS VL: EIVLTQSPGTLSLSPGERATMTCRASSSISSTYLHWYQQKPGASPKLLIYNTQNLASGVPARFSGSGSGTSYTLTISRLEPEDFAVYYCQQFGGYPLITFGAGTKLELKR | ~4000 ng/mL | – | – | – | –
3 | 70E11-VH3VL2 (antibody, human IgG1, kappa, V domains shown, humanized, human IgG1/kappa) VH: QVQLVQSGAEVKKPGASVKVSCKASGYTFTSYNVHWVRQAPGQGLEWIGTIYPGNLATSYNQKFKGRVTLTADKSTSTVYMELSSLRSEDTAVYYCARSGTMDYWGQGTTVTVSS VL: EIVLTQSPGTLSLSPGERATLSCRASSSISSTYLHWYQQKPGQAPKLLIYNTQNLASGIPDRFSGSGSGTSFTLTISRLEPEDFAVYYCQQFGGYPLITFGAGTKLELKR | ~4000 ng/mL | – | – | – | –
4 | 70E11-VH2VL2 (antibody, human IgG1, kappa, V domains shown, humanized, human IgG1/kappa) VH: QVQLVQSGAEVKKPGASVKVSCKASGYTFTSYNVHWVRQAPGQGLEWMGTIYPGNLATSYNQKFKGRVTLTADTSTSTVYMELSSLRSEDTAVYYCARSGTMDYWGQGTTVTVSS VL: EIVLTQSPGTLSLSPGERATLSCRASSSISSTYLHWYQQKPGQAPKLLIYNTQNLASGIPDRFSGSGSGTSFTLTISRLEPEDFAVYYCQQFGGYPLITFGAGTKLELKR | ~4000 ng/mL | – | – | – | –
5 | 70E11-VH2VL3 (antibody, human IgG1, kappa, V domains shown, humanized, human IgG1/kappa) VH: QVQLVQSGAEVKKPGASVKVSCKASGYTFTSYNVHWVRQAPGQGLEWMGTIYPGNLATSYNQKFKGRVTLTADTSTSTVYMELSSLRSEDTAVYYCARSGTMDYWGQGTTVTVSS VL: EIVLTQSPGTLSLSPGERATLSCRASSSISSTYLHWYQQKPGASPKLLIYNTQNLASGIPDRFSGSGSGTSYTLTISRLEPEDFAVYYCQQFGGYPLITFGAGTKLELKR | ~4000 ng/mL | – | – | – | –
6 | 70E11-VH2VL4 (antibody, human IgG1, kappa, V domains shown, humanized, human IgG1/kappa; also called 70E11H2L4) VH: QVQLVQSGAEVKKPGASVKVSCKASGYTFTSYNVHWVRQAPGQGLEWMGTIYPGNLATSYNQKFKGRVTLTADTSTSTVYMELSSLRSEDTAVYYCARSGTMDYWGQGTTVTVSS VL: EIVLTQSPGTLSLSPGERATMTCRASSSISSTYLHWYQQKPGASPKLLIYNTQNLASGVPARFSGSGSGTSYTLTISRLEPEDFAVYYCQQFGGYPLITFGAGTKLELKR | ~4000 ng/mL | 0.43 nM | 17.2 pM | – | –
7 | 70E11-VH4VL2 (antibody, human IgG1, kappa, V domains shown, humanized, human IgG1/kappa) VH: QVQLVQSGAEVKKPGASVKVSCKASGYTFTSYNVHWVKQTPGQGLEWIGTIYPGNLATSYNQKFKGRVTLTADKSTSTVYMELSSLRSEDTAVYYCARSGTMDYWGQGTTVTVSS VL: EIVLTQSPGTLSLSPGERATLSCRASSSISSTYLHWYQQKPGQAPKLLIYNTQNLASGIPDRFSGSGSGTSFTLTISRLEPEDFAVYYCQQFGGYPLITFGAGTKLELKR | ~4000 ng/mL | – | 9.12 pM | – | –
8 | 70E11-VH3VL4 (antibody, human IgG1, kappa, V domains shown, humanized, human IgG1/kappa) VH: QVQLVQSGAEVKKPGASVKVSCKASGYTFTSYNVHWVRQAPGQGLEWIGTIYPGNLATSYNQKFKGRVTLTADKSTSTVYMELSSLRSEDTAVYYCARSGTMDYWGQGTTVTVSS VL: EIVLTQSPGTLSLSPGERATMTCRASSSISSTYLHWYQQKPGASPKLLIYNTQNLASGVPARFSGSGSGTSYTLTISRLEPEDFAVYYCQQFGGYPLITFGAGTKLELKR | ~4000 ng/mL | 0.0502 nM | – | – | –
9 | 70E11-VH4VL3 (antibody, human IgG1, kappa, V domains shown, humanized, human IgG1/kappa) VH: QVQLVQSGAEVKKPGASVKVSCKASGYTFTSYNVHWVKQTPGQGLEWIGTIYPGNLATSYNQKFKGRVTLTADKSTSTVYMELSSLRSEDTAVYYCARSGTMDYWGQGTTVTVSS VL: EIVLTQSPGTLSLSPGERATLSCRASSSISSTYLHWYQQKPGASPKLLIYNTQNLASGIPDRFSGSGSGTSYTLTISRLEPEDFAVYYCQQFGGYPLITFGAGTKLELKR | ~4000 ng/mL | – | 7.29 pM | – | –
10 | 70E11-VH1VL1 (antibody, human IgG1, kappa, V domains shown, humanized, human IgG1/kappa) VH: QVQLVQSGAEVKKPGASVKVSCKASGYTFTSYNVHWVRQAPGQGLEWMGTIYPGNLATSYNQKFKGRVTMTRDTSTSTVYMELSSLRSEDTAVYYCARSGTMDYWGQGTTVTVSS VL: EIVLTQSPGTLSLSPGERATLSCRASSSISSTYLHWYQQKPGQAPRLLIYNTQNLASGIPDRFSGSGSGTDFTLTISRLEPEDFAVYYCQQFGGYPLITFGAGTKLELKR | ~4000 ng/mL | – | 4.36 pM | – | –

Further lines, results first:

Row | IC50 (read off the curve) (TIGIT (ECD)-hFc [1]) | Kd (human TIGIT (ECD)-his) | NK92-mediated ADCC against HEK293A/human TIGIT cells, EC50 [2] | IC50 (read off the curve) (TIGIT (ECD)-hFc [3]) | EC50 (read off the curve) [4] | Binder
11 | ~4000 ng/mL | – | – | – | – | 70E11-VH5VL2 (antibody, human IgG1, kappa, V domains shown, humanized, human IgG1/kappa) VH: QVQLVQSGAEVKKPGASVKVSCKASGYTFTSYNVHWVKQTPGQGLEWIGTIYPGNLATSYNQKFKGKATLTADKSTSTVYMELSSLRSEDTAVYYCARSGTMDYWGQGTTVTVSS VL: EIVLTQSPGTLSLSPGERATLSCRASSSISSTYLHWYQQKPGQAPKLLIYNTQNLASGIPDRFSGSGSGTSFTLTISRLEPEDFAVYYCQQFGGYPLITFGAGTKLELKR
12 | ~4000 ng/mL | 0.25 nM | 7.14 pM | – | – | 70E11-VH5VL3 (antibody, human IgG1, kappa, V domains shown, humanized, human IgG1/kappa; also called 70E11H5L3) VH: QVQLVQSGAEVKKPGASVKVSCKASGYTFTSYNVHWVKQTPGQGLEWIGTIYPGNLATSYNQKFKGKATLTADKSTSTVYMELSSLRSEDTAVYYCARSGTMDYWGQGTTVTVSS VL: EIVLTQSPGTLSLSPGERATLSCRASSSISSTYLHWYQQKPGASPKLLIYNTQNLASGIPDRFSGSGSGTSYTLTISRLEPEDFAVYYCQQFGGYPLITFGAGTKLELKR
13 | ~4000 ng/mL | – | – | – | – | 70E11-VH5VL4 (antibody, human IgG1, kappa, V domains shown, humanized, human IgG1/kappa) VH: QVQLVQSGAEVKKPGASVKVSCKASGYTFTSYNVHWVKQTPGQGLEWIGTIYPGNLATSYNQKFKGKATLTADKSTSTVYMELSSLRSEDTAVYYCARSGTMDYWGQGTTVTVSS VL: EIVLTQSPGTLSLSPGERATMTCRASSSISSTYLHWYQQKPGASPKLLIYNTQNLASGVPARFSGSGSGTSYTLTISRLEPEDFAVYYCQQFGGYPLITFGAGTKLELKR
14 | ~4000 ng/mL | – | – | – | – | Etigilimab (antibody, V domains shown) VH: QVQLQESGPGLVKPSETLSLTCAVSGYSITSDYAWNWIRQPPGKGLEWIGYISYSGSTSYNPSLRSRVTISRDTSKNQFFLKLSSVTAADTAVYYCARRQVGLGFAYWGQGTLVTVSS VL: DIQMTQSPSSLSASVGDRVTITCKASQDVSTAVAWYQQKPGKAPKLLIYSASYRYTGVPSRFSGSGSGTDFTFTISSLQPEDIATYYCQQHYSTPWTFGQGTKVEIK
15 | – | – | – | ~2000 ng/mL | ~200 ng/mL | 149G11-VH1VL1 (antibody, human IgG1, kappa, V domains shown, humanized, human IgG1/kappa) VH: QVQLVQSGAEVKKPGASVKVSCKASGYTFTNYWIHWVRQAPGQGLEWMGDIYPGGRYSNYNEKFRGRVTMTRDTSTSTVYMELSSLRSEDTAVYYCARYYESAMDFWGQGTTVTVSS VL: DIVMTQSPDSLAVSLGERATINCKSSQNLLYNSNQKSYLAWYQQKPGQPPKLLIYWASTRESGVPDRFSGSGSGTDFTLTISSLQAEDVAVYYCQQYYNYPFTFGAGTKLELKR
16 | – | – | 16.2 pM | – | ~200 ng/mL | 149G11-VH2VL2 (antibody, human IgG1, kappa, V domains shown, humanized, human IgG1/kappa) VH: QVQLVQSGAEVKKPGASVKVSCKASGYTFTNYWIHWVRQAPGQGLEWIGDIYPGGRYSNYNEKFRGRVTLTADTSTSTVYMELSSLTSEDTAVYYCARYYESAMDFWGQGTTVTVSS VL: DIVMTQSPDSLAVSLGERATINCKSSQNLLYNSNQKSYLAWFQQKPGQPPKLLIYWASTRESGVPDRFSGSGSGTDFTLTISSLQAEDLAVYYCQQYYNYPFTFGAGTKLELKR
